Holding throughout (assay): HPLC-UV pyrophosphohydrolase assay, Eadie-Hofstee
Common to all, as to assay type: biochemical, Corynebacterium glutamicum

Substrate in data set [1]: Nc1nc2c(ncn2[C@@H]2O[C@H](COP(=O)(O)O)[C@@H](OP(=O)(O)OP(=O)(O)O)[C@H]2O)c(=O)[nH]1
Conditions: 1 mM MnCl2, 50 mM HEPES-Na pH 8.0, 200 mM NaCl, 30°C, substrate inhibition, approximate fit from lowest concentrations. The source says: (§1) HPLC-UV pyrophosphohydrolase assay, Eadie-Hofstee on RelCg

Substrate in data set [2]: Nc1nc2c(ncn2[C@@H]2O[C@H](COP(=O)(O)OP(=O)(O)O)[C@@H](OP(=O)(O)OP(=O)(O)O)[C@H]2O)c(=O)[nH]1
The conditions noted are these: 1 mM MnCl2, 50 mM HEPES-Na pH 8.0, 200 mM NaCl, 30°C, substrate inhibition, approximate fit from lowest concentrations.
Text: as §1

Substrate in data set [3]: Nc1nc2c(ncn2[C@@H]2O[C@H](COP(=O)(O)OP(=O)(O)OP(=O)(O)O)[C@@H](OP(=O)(O)OP(=O)(O)O)[C@H]2O)c(=O)[nH]1
Conditions: 1 mM MnCl2, 50 mM HEPES-Na pH 8.0, 200 mM NaCl, 30°C, substrate inhibition, approximate fit from lowest concentrations, only two data points, no error analysis.
Text: as §1

Substrate in data set [4]: Nc1nc2c(ncn2[C@@H]2O[C@H](COP(=O)(O)O)[C@@H](OP(=O)(O)OP(=O)(O)O)[C@H]2O)c(=O)[nH]1
Conditions: 1 mM MnCl2, 50 mM HEPES-Na pH 8.0, 200 mM NaCl, 30°C, substrate inhibition, approximate fit from lowest concentrations, only two data points, no error analysis. From the text:
(§2) HPLC-UV pyrophosphohydrolase assay, Eadie-Hofstee on […]

Substrate in data set [5]: Nc1nc2c(ncn2[C@@H]2O[C@H](COP(=O)(O)OP(=O)(O)O)[C@@H](OP(=O)(O)OP(=O)(O)O)[C@H]2O)c(=O)[nH]1
The conditions noted are these: 1 mM MnCl2, 50 mM HEPES-Na pH 8.0, 200 mM NaCl, 30°C, substrate inhibition, approximate fit from lowest concentrations.
Text: as §2
The source holds these as a separate data set.

Substrate in data set [6]: Nc1nc2c(ncn2[C@@H]2O[C@H](COP(=O)(O)OP(=O)(O)OP(=O)(O)O)[C@@H](OP(=O)(O)OP(=O)(O)O)[C@H]2O)c(=O)[nH]1
Conditions: 1 mM MnCl2, 50 mM HEPES-Na pH 8.0, 200 mM NaCl, 30°C, substrate inhibition, approximate fit from lowest concentrations.
Text: as §2

B1: RelCg (Corynebacterium glutamicum ATCC 13032) (protein)
chain: MSLERNTQKSSMGVRSMSARLARSLTGNRVRTNPVLDPLLSIHRQFHPRADVQVLERAYDTAERLHDGVIRKSGDPYITHPLAVATIAAEIGMDTTTLVAALLHDTVEDTDYSLDDLTRDFGEEVARLVDGVTKLDKVALGAAAEAETIRKMIVAMSQDPRVLVIKVADRLHNMRTMRFLPPEKQAKKARQTLEVIAPLAHRLGMASVKWELEDLSFAILYPKKYEEIVRLVADRAPSRDRYLKEIIDQVTGGLRENNIAAEVLGRPKHYWSIYQKMIVRGRDFDDIFDLVGIRILVDNVNNCYAAIGVVHSLFNALPGRFKDYISAPRFGVYQSLHTTVMGPGGKPLEVQARTHDMHYNAEFGIAAHWRYKETKGSHSGEQAEVDQMAWMRQLLDWQKEAADPNEFLDSLRYDLTSKQIFVFTPKGDVVNLPVNSTPVDFAYAVHTEVGHRCIGAKINGKLVALETKLKSGDRVEVFTSKDQNAGPSRGWQEFVVSPRAKAKIRQWFAKERREEYLEAGRDALAAVIQRGGLPMHRLFTASSMKTVATELHYPDVDALYTAIGSGSVSAQHVVNRLMAIFGDEEDAEDALVARTPFSELVNSRATTESSTGILVEGSPDVMAKLAKCCMPVPGDEIFGFVTRGGGVSVHRTDCTNVEKLKEEPERIVSVSWASEGQGSVFSATLQLEALDRAGLLFELTRVINEQKVSVTAMNSHCSEDRVATVRFTFAVSDTKQLGSLMTQLRNAEGVFDVYRVTSGG
notes: full-length bifunctional RSH; expressed in E. coli ER2566
Consider B1, for which, in data set [1], the Km came out at 734 ± 127 µM, the kcat was determined as 0.794 ± 0.071 s⁻¹ and the kcat/Km was 1080 M⁻¹ s⁻¹. In data set [2], the Km was determined as 511 ± 10 µM, the kcat amounted to 0.296 ± 0.004 s⁻¹ and the kcat/Km is 579 M⁻¹ s⁻¹. In data set [3], the Michaelis constant (Km) was 422 µM, the kcat amounted to 0.563 s⁻¹ and the kcat/Km is 1340 M⁻¹ s⁻¹.

B2: RelHCg (Corynebacterium glutamicum ATCC 13032) (protein)
chain: MNTLSPRLRKAMNTAAWAHRHHVRKGGGIPYVSHLYSVMYLLASVTNDEDVLIAGLLHDTLEDVPEEYNSAQLEADFGPRVRELVEELTKQPLKSWKARADAYLLHLSAGASLEAVLISTADKLHNLMSILDDLEIHGEDLWQRFNAGKEQQIWWYSEVYQISLQRLGFNELNKQLGLCVEKLLKQSA
notes: full-length; expressed in E. coli ER2566
B2: in data set [4], the Km is 144 µM, the kcat turned out to be 0.294 s⁻¹ and the kcat/Km was found to be 2040 M⁻¹ s⁻¹. In data set [5], the Km worked out at 101 ± 7 µM, the kcat was 0.502 ± 0.018 s⁻¹ and the kcat/Km was 4970 M⁻¹ s⁻¹. In data set [6], the Km came out at 90 ± 11 µM, the catalytic constant (kcat) was 0.09 ± 0.003 s⁻¹ and the kcat/Km turned out to be 1010 M⁻¹ s⁻¹.

A word on the Km: it is the concentration of substrate that gives half-maximal velocity. A word on the kcat: it is the maximal rate divided by the concentration of active sites. As usually defined, the kcat/Km is the second-order rate constant that governs catalysis at low substrate concentration.

Source of the values: publication PMC5954133, “Functional Characterization of a Small Alarmone Hydrolase in Corynebacterium glutamicum” (Frontiers in Microbiology, 2018).
